Two substances from US20190085040A1 can be followed below.

For data set [1], the target named is transient receptor potential vanilloid 1 (TRPV1), rat, in primary neonatal cardiomyocytes (rat) (UniProt O35433). Kind of data set: cell-based or functional assay.
Sequence of transient receptor potential vanilloid 1 (TRPV1), rat, in primary neonatal cardiomyocytes (rat) (O35433 whole entry): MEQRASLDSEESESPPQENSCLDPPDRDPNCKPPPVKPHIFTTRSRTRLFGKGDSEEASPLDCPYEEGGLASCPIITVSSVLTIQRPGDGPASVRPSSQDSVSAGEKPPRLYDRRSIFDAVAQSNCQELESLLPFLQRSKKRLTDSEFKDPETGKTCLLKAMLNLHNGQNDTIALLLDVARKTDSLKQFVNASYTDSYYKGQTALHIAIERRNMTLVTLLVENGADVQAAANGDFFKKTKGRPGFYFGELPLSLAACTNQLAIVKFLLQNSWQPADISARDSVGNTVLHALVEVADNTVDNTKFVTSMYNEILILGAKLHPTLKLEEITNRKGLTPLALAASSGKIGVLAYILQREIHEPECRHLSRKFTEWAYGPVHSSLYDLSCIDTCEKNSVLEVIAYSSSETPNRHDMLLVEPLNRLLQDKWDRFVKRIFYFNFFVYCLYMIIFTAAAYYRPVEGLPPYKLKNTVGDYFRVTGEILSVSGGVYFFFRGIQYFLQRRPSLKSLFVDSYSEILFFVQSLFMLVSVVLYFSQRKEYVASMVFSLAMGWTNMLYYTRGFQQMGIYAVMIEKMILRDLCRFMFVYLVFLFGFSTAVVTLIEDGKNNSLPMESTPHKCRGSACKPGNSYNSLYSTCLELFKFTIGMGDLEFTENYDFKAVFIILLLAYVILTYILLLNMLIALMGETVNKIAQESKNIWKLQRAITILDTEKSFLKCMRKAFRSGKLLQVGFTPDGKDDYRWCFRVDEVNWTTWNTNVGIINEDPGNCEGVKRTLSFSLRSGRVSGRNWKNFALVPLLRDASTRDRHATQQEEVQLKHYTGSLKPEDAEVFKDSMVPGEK

Take recombinant calcineurin: the “calcineurin activity by free phosphate release from a calcineurin substrate (colorimetric, peptide at 10 µM, against TAT at 10 µM)” value in the data set with V1-cal is “In comparison to TAT, V1-cal reduced the ability for calcineurin to dephosphorylate a calcineurin substrate as measured by free phosphate release in vitro”.
“calcineurin, endogenous in rat primary neonatal cardiomyocytes (enzyme)”: in data set [1], the fold decrease in negative change in mitochondrial membrane potential caused by capsaicin (1 µM) in primary neonatal cardiomyocytes, with V1-cal (1 µM) given 10 minutes before amounted to 10 fold.
